Earlier results, collected in US9394339B2, “Stabilized formulations of peptides and proteins protecting against non-enzymatic degradation” (Lyotropic Therapeutics, Inc., priority 2007, dated 2016).

details: aqueous solution, pH 7.4, 37° C., Tris-HCl buffer

Row | Molecule | T1/10 (time to 10% degradation by deamidation)
1 | Thymidylate synthase (1HW3): human protein (protein, UniProt P04818 2-313, looked up) Thymidylate synthase: PVAGSELPRRPLPPAAQERDAEPRPPHGELQYLGQIQHILRCGVRKDDRTGTGTLSVFGMQARYSLRDEFPLLTTKRVFWKGVLEELLWFIKGSTNAKELSSKGVKIWDANGSRDFLDSLGFSTREEGDLGPVYGFQWRHFGAEYRDMESDYSGQGVDQLQRVIDTIKTNPDDRRIIMCAWNPRDLPLMALPPCHALCQFYVVNSELSCQLYQRSGDMGLGVPFNIASYALLTYMIAHITGLKPGDFIHTLGDAHIYLNHIEPLKIQLQREPRPFPKLRILRKVEKIDDFKAEDFQIEGYNPHPTIKMEMAV | 0.41 days
2 | Eosinophil cationic protein (1QMT): human protein (protein, UniProt P12724 28-160, looked up) Eosinophil cationic protein: RPPQFTRAQWFAIQHISLNPPRCTIAMRAINNYRWRCKNQNTFLRTTFANVVNVCGNQSIRCPHNRTLNNCHRSRFRVPLLHCDLINPGAQNISNCTYADRPGRRFYVVACDNRDPRDSPRYPVVPVHLDTTI | 65 days
3 | Lithostathine (1LIT): human protein (protein, UniProt P05451 23-166, looked up) Lithostathine-1-alpha: QEAQTELPQARISCPEGTNAYRSYCYYFNEDRETWVDADLYCQNMNSGNLVSVLTQAEGAFVASLIKESGTDDFNVWIGLHDPKKNRRWHWSSGSLVSYKSWGIGAPSSVNPGYCVSLTSSTGFQKWKDVPCEDKFSFVCKFKN | 74 days
4 | Procarboxypeptidase A2 (1AYE): human protein (protein, UniProt P48052 19-419, looked up, pro-form) pro-form: LETFVGDQVLEIVPSNEEQIKNLLQLEAQEHLQLDFWKSPTTPGETAHVRVPFVNVQAVKVFLESQGIAYSIMIEDVQVLLDKENEEMLFNRRRERSGNFNFGAYHTLEEISQEMDNLVAEHPGLVSKVNIGSSFENRPMNVLKFSTGGDKPAIWLDAGIHAREWVTQATALWTANKIVSDYGKDPSITSILDALDIFLLPVTNPDGYVFSQTKNRMWRKTRSKVSGSLCVGVDPNRNWDAGFGGPGASSNPCSDSYHGPSANSEVEVKSIVDFIKSHGKVKAFITLHSYSQLLMFPYGYKCTKLDDFDELSEVAQKAAQSLRSLHGTKYKVGPICSVIYQASGGSIDWSYDYGIKYSFAFELRDTGRYGFLLPARQILPTAEETWLGLKAIMEHVRDHPY | 23 days
5 | Thioltransferase (1JHB): human protein (protein, UniProt P35754 2-106, looked up) Glutaredoxin-1: AQEFVNCKIQPGKVVVFIKPTCPYCRRAQEILSQLPIKQGLLEFVDITATNHTNEIQDYLQQLTGARTVPRVFIGKDCIGGCSDLVSLQQSGELLTRLKQIGALQ | 71 days
6 | Ribonuclease inhibitor (1A4Y): human protein (protein, UniProt P13489 2-461, looked up) Ribonuclease inhibitor: SLDIQSLDIQCEELSDARWAELLPLLQQCQVVRLDDCGLTEARCKDISSALRVNPALAELNLRSNELGDVGVHCVLQGLQTPSCKIQKLSLQNCCLTGAGCGVLSSTLRTLPTLQELHLSDNLLGDAGLQLLCEGLLDPQCRLEKLQLEYCSLSAASCEPLASVLRAKPDFKELTVSNNDINEAGVRVLCQGLKDSPCQLEALKLESCGVTSDNCRDLCGIVASKASLRELALGSNKLGDVGMAELCPGLLHPSSRLRTLWIWECGITAKGCGDLCRVLRAKESLKELSLAGNELGDEGARLLCETLLEPGCQLESLWVKSCSFTAACCSHFSSVLAQNRFLLELQISNNRLEDAGVRELCQGLGQPGSVLRVLWLADCDVSDSSCSSLAATLLANHSLRELDLSNNCLGDAGILQLVESVRQPGCLLEQLVLYDIYWSEEMEDRLQALEKDKPSLRVIS | 68 days
7 | O6-alkylguanine-DNA alkyltransferase (1EH6): human protein (protein, UniProt P16455 1-207, looked up) Methylated-DNA--protein-cystei …: MDKDCEMKRTTLDSPLGKLELSGCEQGLHEIKLLGKGTSAADAVEVPAPAAVLGGPEPLMQCTAWLNAYFHQPEAIEEFPVPALHHPVFQQESFTRQVLWKLLKVVKFGEVISYQQLAALAGNPKAARAVGGAMRGNPVPILIPCHRVVCSSGAVGNYSGGLAVKEWLLAHEGHRLGKPGLGGSSGLAGAWLKGAGATSGSPPAGRN | 46 days
8 | Neutrophil (gelatinase) (1DFV): human protein (protein, UniProt P80188 21-198, looked up) Neutrophil …: QDSTSDLIPAPPLSKVPLQQNFQDNQFQGKWYVVGLAGNAILREDKDPQKMYATIYELKEDKSYNVTSVLFRKKKCDYWIRTFVPGCQPGEFTLGNIKSYPGLTSYLVRVVSTNYNQHAMVFFKKVSQNREYFKITLYGRTKELTSELKENFIRFSKSLGLPENHIVFPVPIDQCIDG | 44 days
9 | Quinone reductase type 2 (1QR2): human protein (protein, UniProt P16083 1-231, looked up) Ribosyldihydronicotinamide …: MAGKKVLIVYAHQEPKSFNGSLKNVAVDELSRQGCTVTVSDLYAMNLEPRATDKDITGTLSNPEVFNYGVETHEAYKQRSLASDITDEQKKVREADLVIFQFPLYWFSVPAILKGWMDRVLCQGFAFDIPGFYDSGLLQGKLALLSVTTGGTAEMYTKTGVNGDSRYFLWPLQHGTLHFCGFKVLAPQISFAPEIASEEERKGMVAAWSQRLQTIWKEEPIPCTAHWHFGQ | 50 days
10 | Phenylalanine hydroxylase (1DMW): human protein (protein, UniProt P00439 1-452, looked up) Phenylalanine-4-hydroxylase: MSTAVLENPGLGRKLSDFGQETSYIEDNCNQNGAISLIFSLKEEVGALAKVLRLFEENDVNLTHIESRPSRLKKDEYEFFTHLDKRSLPALTNIIKILRHDIGATVHELSRDKKKDTVPWFPRTIQELDRFANQILSYGAELDADHPGFKDPVYRARRKQFADIAYNYRHGQPIPRVEYMEEEKKTWGTVFKTLKSLYKTHACYEYNHIFPLLEKYCGFHEDNIPQLEDVSQFLQTCTGFRLRPVAGLLSSRDFLGGLAFRVFHCTQYIRHGSKPMYTPEPDICHELLGHVPLFSDRSFAQFSQEIGLASLGAPDEYIEKLATIYWFTVEFGLCKQGDSIKAYGAGLLSSFGELQYCLSEKPKLLPLELEKTAIQNYTVTEFQPLYYVAESFNDAKEKVRNFAATIPRPFSVRYDPYTQRIEVLDNTQQLKILADSINSEIGILCSALQKIK | 33 days
11 | Phosphatidylethanolamine binding protein (1BD9): human protein (protein, UniProt P30086 2-187, looked up) Phosphatidylethanolamine-bindi …: PVDLSKWSGPLSLQEVDEQPQHPLHVTYAGAAVDELGKVLTPTQVKNRPTSISWDGLDSGKLYTLVLTDPDAPSRKDPKYREWHHFLVVNMKGNDISSGTVLSDYVGSGPPKGTGLHRYVWLVYEQDRPLKCDEPILSNRSGDHRGKFKVASFRKKYELRAPVAGTCYQAEWDDYVPKLYEQLSGK | 100 days
12 | Uroporphyrinogen decarboxylase (1URO): human protein (protein, UniProt P06132 1-367, looked up) Uroporphyrinogen decarboxylase: MEANGLGPQGFPELKNDTFLRAAWGEETDYTPVWCMRQAGRYLPEFRETRAAQDFFSTCRSPEACCELTLQPLRRFPLDAAIIFSDILVVPQALGMEVTMVPGKGPSFPEPLREEQDLERLRDPEVVASELGYVFQAITLTRQRLAGRVPLIGFAGAPWTLMTYMVEGGGSSTMAQAKRWLYQRPQASHQLLRILTDALVPYLVGQVVAGAQALQLFESHAGHLGPQLFNKFALPYIRDVAKQVKARLREAGLAPVPMIIFAKDGHFALEELAQAGYEVVGLDWTVAPKKARECVGKTVTLQGNLDPCALYASEEEIGQLVKQMLDDFGPHRYIANLGHGLYPDMDPEHVGAFVDAVHKHSRLLRQN | 0.15 days
13 | Ribonuclease 4 (1RNF): human protein (protein, UniProt P34096 29-147, looked up) Ribonuclease 4: QDGMYQRFLRQHVHPEETGGSDRYCNLMMQRRKMTLYHCKRFNTFIHEDIWNIRSICSTTNIQCKNGKMNCHEGVVKVTDCRDTGSSRAPNCRYRAIASTRRVVIACEGNPQVPVHFDG | 20 days
14 | -Lactalbumin (1B9O): human protein (protein, UniProt P00709 20-142, looked up) Alpha-lactalbumin: KQFTKCELSQLLKDIDGYGGIALPELICTMFHTSGYDTQAIVENNESTEYGLFQISNKLWCKSSQVPQSRNICDISCDKFLDDDITDDIMCAKKILDIKGIDYWLAHKALCTEKLEQWLCEKL | 20 days
15 | Electron transfer flavoprotein (1EFV): human protein (protein, UniProt P13804 20-333; P38117 2-255, looked up) Electron transfer … 1: QSTLVIAEHANDSLAPITLNTITAATRLGGEVSCLVAGTKCDKVAQDLCKVAGIAKVLVAQHDVYKGLLPEELTPLILATQKQFNYTHICAGASAFGKNLLPRVAAKLEVAPISDIIAIKSPDTFVRTIYAGNALCTVKCDEKVKVFSVRGTSFDAAATSGGSASSEKASSTSPVEISEWLDQKLTKSDRPELTGAKVVVSGGRGLKSGENFKLLYDLADQLHAAVGASRAAVDAGFVPNDMQVGQTGKIVAPELYIAVGISGAIQHLAGMKDSKTIVAINKDPEAPIFQVADYGIVADLFKVVPEMTEILKKK Electron transfer … 2: AELRVLVAVKRVIDYAVKIRVKPDRTGVVTDGVKHSMNPFCEIAVEEAVRLKEKKLVKEVIAVSCGPAQCQETIRTALAMGADRGIHVEVPPAEAERLGPLQVARVLAKLAEKEKVDLVLLGKQAIDDDCNQTGQMTAGFLDWPQGTFASQVTLEGDKLKVEREIDGGLETLRLKLPAVVTADLRLNEPRYATLPNIMKAKKKKIEVIKPGDLGVDLTSKLSVISVEDPPQRTAGVKVETTEDLVAKLKEIGRI | 29 days

same assay, conditions: buffer, pH 7.4

Row | Molecule | T1/2 (half-life, deamidation)
16 | Glucosamine-6-phosphate deaminase isomerase (1D9T): human protein (protein, UniProt P46926 1-289, looked up) Glucosamine-6-phosphate …: MKLIILEHYSQASEWAAKYIRNRIIQFNPGPEKYFTLGLPTGSTPLGCYKKLIEYYKNGDLSFKYVKTFNMDEYVGLPRDHPESYHSFMWNNFFKHIDIHPENTHILDGNAVDLQAECDAFEEKIKAAGGIELFVGGIGPDGHIAFNEPGSSLVSRTRVKTLAMDTILANARFFDGELTKVPTMALTVGVGTVMDAREVMILITGAHKAFALYKAIEEGVNHMWTVSAFQQHPRTVFVCDEDATLELKVKTVKYFKGLMLVHNKLVDPLYSIKEKETEKSQSSKKPYSD | 320 days

same assay, conditions: pH 7.4

Row | Molecule | T1/10 (time to 10% degradation by deamidation)
17 | Glucosamine-6-phosphate deaminase isomerase (1D9T): human protein (protein, UniProt P46926 1-289, looked up) Glucosamine-6-phosphate …: MKLIILEHYSQASEWAAKYIRNRIIQFNPGPEKYFTLGLPTGSTPLGCYKKLIEYYKNGDLSFKYVKTFNMDEYVGLPRDHPESYHSFMWNNFFKHIDIHPENTHILDGNAVDLQAECDAFEEKIKAAGGIELFVGGIGPDGHIAFNEPGSSLVSRTRVKTLAMDTILANARFFDGELTKVPTMALTVGVGTVMDAREVMILITGAHKAFALYKAIEEGVNHMWTVSAFQQHPRTVFVCDEDATLELKVKTVKYFKGLMLVHNKLVDPLYSIKEKETEKSQSSKKPYSD | 49 days

same assay, conditions: pH 7.4, 37° C., […] Tris.HCl buffer

Row | Molecule | time to lose 10% potency
18 | Uroporphyrinogen decarboxylase (1URO): human protein (protein, UniProt P06132 1-367, looked up) Uroporphyrinogen decarboxylase: MEANGLGPQGFPELKNDTFLRAAWGEETDYTPVWCMRQAGRYLPEFRETRAAQDFFSTCRSPEACCELTLQPLRRFPLDAAIIFSDILVVPQALGMEVTMVPGKGPSFPEPLREEQDLERLRDPEVVASELGYVFQAITLTRQRLAGRVPLIGFAGAPWTLMTYMVEGGGSSTMAQAKRWLYQRPQASHQLLRILTDALVPYLVGQVVAGAQALQLFESHAGHLGPQLFNKFALPYIRDVAKQVKARLREAGLAPVPMIIFAKDGHFALEELAQAGYEVVGLDWTVAPKKARECVGKTVTLQGNLDPCALYASEEEIGQLVKQMLDDFGPHRYIANLGHGLYPDMDPEHVGAFVDAVHKHSRLLRQN | about 3.6 hours
